Experimental data published in the supplement of paper PMC10724198.
± gives the standard deviation of the averaged measurements.

Test system: Saccharomyces cerevisiae
Assay: protein stability index of tFT-peptide fusion (C-terminal peptide) (PSI (0-1 scale)); higher = more stable (slower turnover)
Conditions: genetic background: wild type; temperature: 30 C
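Further: PSI is a weighted mean of sequencing reads over stability bins, variants kept only with over 10 reads, mCherry proximal and sfGFP distal, peptide attached via GGGS linker.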

| Sequence | protein stability index |
| --- | --- |
| EDNRTSEMFVFY | 0.753 ± 0.14 |
| FRPPFRSAPLSP | 0.679 ± 0.051 |
| RDQPPPLPFTRP | 0.712 ± 0.1 |
| EFVFLLSNTFNS | 0.749 ± 0.03 |
| TPVPPLLSRCYP | 0.691 ± 0.044 |
| NAFTMWVSRQAR | 0.77 ± 0.02 |
| NALFGWMRGCLS | 0.724 ± 0.034 |
| VGVTLSSFSRLP | 0.693 ± 0.085 |
| PPSVPAPPLPDP | 0.675 ± 0.038 |
| PLRPAPVLYPAF | 0.654 ± 0.012 |
| LIPLSLPSCPLS | 0.69 ± 0.085 |
| IWCSCWPGNWET | 0.823 ± 0.12 |
| VGGFCSWVVAWF | 0.717 ± 0.1 |
| SKGFVIMRAACF | 0.572 ± 0.018 |
| VRNPLRSFSGDA | 0.64 ± 0.049 |
| RLSFAWGGLLVV | 0.523 ± 0.0057 |
| PLLLYFLPPLPL | 0.629 ± 0.039 |
| SSFCWAGWGGVC | 0.778 ± 0.059 |
| QARKGPISSCRP | 0.664 ± 0.067 |
| PLPPRPSPPPPL | 0.705 ± 0.013 |
| PPPPPPPDPVPP | 0.645 ± 0.039 |
| PPPRPTHSRPGP | 0.64 ± 0.057 |
| PVVKVCRPVFLD | 0.829 ± 0.13 |
| LSTMPLFPSLHR | 0.731 ± 0.025 |
| RFASGAVLSWAC | 0.695 ± 0.015 |
| PPPPPSRPPPAL | 0.7405 ± 0.0049 |

| Sequence | protein stability index |
| --- | --- |
| THFPFPVLFSLP | 0.592 ± 0.03 |
| GVIFRRFDVGLS | 0.682 ± 0.053 |
| FLSWTAYRPSST | 0.682 ± 0.0075 |
| AGAWVRVVVGWG | 0.737 ± 0.012 |
| VAGWDRETGAWG | 0.58 ± 0.083 |
| VSRGESEVKAGG | 0.673 ± 0.1 |
| SGFFGFLLGAYG | 0.5876 ± 0.0031 |
| LQSGALEHLGAS | 0.716 ± 0.074 |
| KKTLWRKITMQK | 0.7193 ± 0.0057 |
| GVGWGSSWVGYG | 0.898 ± 0.092 |
| LGLSTLLVPHTR | 0.743 ± 0.028 |
| VRHGERGGGLGD | 0.782 ± 0.06 |
| GVWLRTARRISK | 0.688 ± 0.037 |
| SPLGAADTRQEP | 0.687 ± 0.025 |
| YSPSPPSFAFSS | 0.801 ± 0.079 |
| ARTIVLGAGSGT | 0.654 ± 0.084 |
| LSPSSPHLPFPL | 0.702 ± 0.038 |
| FCGFTSLCVGDL | 0.731 ± 0.039 |
| PHPPLPPLLPPA | 0.741 ± 0.082 |
| SSQLKMESLFII | 0.624 ± 0.064 |
| FWFFRGALVHPA | 0.599 ± 0.019 |
| KARIADRKMWGN | 0.684 ± 0.017 |
| WGWGVGWSGACL | 0.7116 ± 0.0017 |
| VGGVWGLGVRPR | 0.693 ± 0.029 |
| RGSPDRPGGPLP | 0.7322 ± 0.0028 |
| GREGGEQRKEGK | 0.692 ± 0.029 |

| Sequence | protein stability index |
| --- | --- |
| WLFVALRGRFEF | 0.59 ± 0.042 |
| FVFGSVLPGPTC | 0.692 ± 0.0098 |
| PPSPPPPLYPPA | 0.683 ± 0.038 |
| DMYSVTRDHVMI | 0.655 ± 0.04 |
| STGLITYNYSVC | 0.648 ± 0.024 |
| ILPPPPPPPPPF | 0.714 ± 0.039 |
| PPSHGYPPRLIP | 0.67842 ± 0.00022 |
| GQKRKGTRSKVP | 0.696 ± 0.026 |
| WGSGGGRDGCGV | 0.655 ± 0.083 |
| LPSFPRISPPSI | 0.656 ± 0.016 |
| PSMLFPRTLSPL | 0.6963 ± 0.0056 |
| PSAWRCFSTGKV | 0.844 ± 0.018 |
| RVLSAASATRMT | 0.619 ± 0.013 |
| HIGVVSIERLTS | 0.576 ± 0.021 |
| LITCHSHKPQQI | 0.704 ± 0.098 |
| VAVAAPVVRAVI | 0.69 ± 0.054 |
| PTKRHRKAPGTN | 0.629 ± 0.069 |
| RFPLLAPPRPLP | 0.7318 ± 0.0043 |
| PPHPSPPPPSHS | 0.693 ± 0.039 |
| PSAPFLPSPPPV | 0.661 ± 0.021 |
| PAPTRPSPPPLP | 0.641 ± 0.013 |
| EGDACCGVDGKR | 0.663 ± 0.13 |
| GIYLEESPMRKF | 0.708 ± 0.014 |
| AVTWSRPRSARM | 0.736 ± 0.0041 |
| RRAPLRNTSRHR | 0.663 ± 0.021 |
| FPSSALPPRLSL | 0.7409 ± 0.0072 |

| Sequence | protein stability index |
| --- | --- |
| IRVATIQSTMYI | 0.643 ± 0.016 |
| IKSQRGIHLELR | 0.634 ± 0.028 |
| GLGALPVRVWEG | 0.731 ± 0.034 |
| LGVGVGGRGVRG | 0.745 ± 0.0098 |
| RGRAGPVVRELT | 0.646 ± 0.097 |
| RVLRAELCLHEI | 0.687 ± 0.065 |
| PRAPRPHPLTNF | 0.673 ± 0.051 |
| ARVDGGGVRTDV | 0.7511 ± 0.0069 |
| ILEGGGVLAWFG | 0.7253 ± 0.0017 |
| QLPPRLSRRLPP | 0.741 ± 0.17 |
| LTACLRRTNTLM | 0.503 ± 0.0041 |
| GGKGGWHRRWGC | 0.643 ± 0.062 |
| REKSLKINKKKN | 0.676 ± 0.0068 |
| CRLTAWDESGSG | 0.673 ± 0.025 |
| VGRAPDFLYGVW | 0.691 ± 0.044 |
| CRVALSRGVSLV | 0.65 ± 0.0094 |
| NCMFKSNKQGGA | 0.6749 ± 0.0021 |
| ISLTFNSNSKPM | 0.687 ± 0.053 |
| PKVRQLLLTRVL | 0.547 ± 0.022 |
| GGGGGLRGRGVR | 0.682 ± 0.057 |
| LSWSLSSFACEM | 0.65 ± 0.014 |
| LLRFSFLHFLFY | 0.6116 ± 0.003 |
| SPTSLPLSMPTR | 0.724 ± 0.1 |
| PPPLPGSLLPLP | 0.72349 ± 0.00037 |
| SPLPPHPPLPLL | 0.6395 ± 0.002 |
| LVLSRSGPFSHL | 0.7 ± 0.073 |

| Sequence | protein stability index |
| --- | --- |
| SFGIGFFATRGF | 0.676 ± 0.031 |
| VREGTKDGGSRV | 0.544 ± 0.042 |
| WGQSMFSLLVSI | 0.542 ± 0.035 |
| WGGGGPGWGSRG | 0.621 ± 0.027 |
| AWLAQIKLGWGL | 0.68 ± 0.016 |
| VWVWVGGGSRGC | 0.7121 ± 0.0041 |
| SPSPRLSFFLPS | 0.727 ± 0.026 |
| CLPHYSQVLLNW | 0.715 ± 0.098 |
| DTNRALMRKSHS | 0.673 ± 0.0088 |
| VTLWGFFRVLSL | 0.686 ± 0.043 |
| VGLLLAGKIVTY | 0.604 ± 0.033 |
| AGRGEIVINGKR | 0.615 ± 0.07 |
| VVYFGVVVEGQV | 0.514 ± 0.032 |
| DTDLWFASVFSS | 0.793 ± 0.022 |
| RVDFRLPVYLGI | 0.61 ± 0.015 |
| TESGKEKLDVIS | 0.689 ± 0.007 |
| KVGKRQGFSVYV | 0.684 ± 0.022 |
| GCGFYRTSRVPS | 0.717 ± 0.059 |
| SVGRPVACLFVH | 0.5115 ± 0.0019 |
| LRGLVGEYRRLK | 0.656 ± 0.057 |
| DSGRRVTLLVFV | 0.594 ± 0.041 |
| SVWLISPRPLSV | 0.5639 ± 0.0032 |
| ISWLLSFLGVVF | 0.601 ± 0.046 |
| PPLLPLPPPPSP | 0.625 ± 0.067 |
| GCYGRVLELAWR | 0.552 ± 0.035 |
| PCMCKRNKQYRG | 0.649 ± 0.016 |

| Sequence | protein stability index |
| --- | --- |
| HAPAPPLPTIYP | 0.668 ± 0.094 |
| WRSGLRGPAIYG | 0.707 ± 0.018 |
| KVFHTDSNPNNK | 0.663 ± 0.016 |
| AGGLGGSILCLV | 0.556 ± 0.025 |
| SPPSFLSFFCAP | 0.755 ± 0.14 |
| SLPPSPPPPSLP | 0.715 ± 0.028 |
| GWSVGQSEMNTY | 0.73 ± 0.056 |
| PLPFPPPPPSPY | 0.655 ± 0.086 |
| VACSVVVPGLGG | 0.69 ± 0.017 |
| RFPFFLLPPLSS | 0.65 ± 0.091 |
| FESTCSGLLYNS | 0.694 ± 0.039 |
| LSSWTYTRFLHG | 0.749 ± 0.085 |
| RLGCGFGGGEEV | 0.674 ± 0.032 |
| PPLASSPPVLAR | 0.514 ± 0.018 |
| GSVRGFGGGGEE | 0.652 ± 0.049 |
| KKNKRMKVREKK | 0.609 ± 0.034 |
| MAHAYTRKDTRK | 0.64 ± 0.052 |
| NTSLLMAWPIPP | 0.556 ± 0.032 |
| LIIMPTFDISAP | 0.7273 ± 0.0059 |
| DKTPRSHKKTAE | 0.738 ± 0.022 |
| PSTSHLALSWSV | 0.703 ± 0.065 |
| PPLKPRTSRPTI | 0.682 ± 0.009 |
| WVWKRLTGQDGA | 0.668 ± 0.06 |
| NARMPPHIVAGI | 0.64 ± 0.034 |
| QNPRTDEAVRSP | 0.619 ± 0.011 |
| ITIVIKQNVDKE | 0.564 ± 0.016 |

| Sequence | protein stability index |
| --- | --- |
| RSSDFASDRGWT | 0.67 ± 0.028 |
| YFGGRGPRGRER | 0.714 ± 0.0095 |
| PVAQSCHAPSPP | 0.62303 ± 0.00018 |
| SCLPSDRLTYLP | 0.714 ± 0.014 |
| AGVDKWLMCEVS | 0.695 ± 0.034 |
| PPPAPRPPASPP | 0.69815 ± 0.00052 |
| KKKNKNENKKPQ | 0.667 ± 0.021 |
| GWWCGGGGAWSG | 0.719 ± 0.041 |
| VSSFALDVGFHF | 0.638 ± 0.068 |
| RDLEAVRSEDHR | 0.6766 ± 0.0047 |
| PPVRLLPCVCHF | 0.708 ± 0.049 |
| CFCVRTGCSVGV | 0.663 ± 0.016 |
| KTTSRIKEIIQK | 0.606 ± 0.017 |
| ICRGGLWGVCVG | 0.581 ± 0.0097 |
| QKPHGDVSFQVM | 0.662 ± 0.033 |
| GIVGFSHGIISL | 0.703 ± 0.032 |
| APPPLPPARSPP | 0.6541 ± 0.0056 |
| GFVQGNNGFLMK | 0.682 ± 0.034 |
| GSSDTYLLSLVD | 0.733 ± 0.052 |
| CFFNAASHSTYE | 0.7032 ± 0.0049 |
| PPPGPSPPPSPH | 0.683 ± 0.074 |
| RRRAEGRRGVRA | 0.6223 ± 0.0014 |
| AKRLYLLTNRND | 0.634 ± 0.025 |
| YLPRREAALRRV | 0.7118 ± 0.0034 |
| LQSPGAFFSVSK | 0.7 ± 0.018 |
| PHVSGYTVLIWF | 0.5588 ± 0.0054 |

| Sequence | protein stability index |
| --- | --- |
| SDMCLGRVFCFL | 0.63 ± 0.069 |
| CVLVVCRFTGDW | 0.5083 ± 0.0038 |
| HGGCLGGYGGGG | 0.661 ± 0.036 |
| SETMFRLVADIT | 0.715 ± 0.011 |
| LPRPSALLLRSL | 0.5 ± 0.12 |
| PTASDPLPPPPN | 0.867 ± 0.13 |
| VEAWGVGVGSTV | 0.676 ± 0.021 |
| SILFMYPARNAP | 0.7177 ± 0.0028 |
| PLALPLHLPLPP | 0.667 ± 0.034 |
| GVYFMGVLGREG | 0.655 ± 0.067 |
| VWAGGSLLGCVG | 0.686 ± 0.044 |
| QGGLCGVYGWSL | 0.68 ± 0.042 |
| EGGMLNAVRPRS | 0.663 ± 0.048 |
| ILTDFELLPVYR | 0.731 ± 0.063 |
| SVVVGTVFCRSW | 0.615 ± 0.015 |
| WPPPPPPPASPH | 0.719 ± 0.071 |
| RTRTGRPKSPLH | 0.6354 ± 0.0052 |
| YNDGSNPYLSRS | 0.722 ± 0.065 |
| SFLAHSFLPLPP | 0.631 ± 0.069 |
| GGRGWEGRGGSG | 0.684 ± 0.022 |
